Results on 1 molecule are retold here after paper PMC4975007.

In the data set the target is Dbp2 (MBP-TEV-Dbp2 construct) (Saccharomyces cerevisiae, UniProt P24783 1-546). As to the kind of experiment: fluorescence anisotropy.
Sequence of Dbp2 (MBP-TEV-Dbp2 construct) (P24783 whole entry): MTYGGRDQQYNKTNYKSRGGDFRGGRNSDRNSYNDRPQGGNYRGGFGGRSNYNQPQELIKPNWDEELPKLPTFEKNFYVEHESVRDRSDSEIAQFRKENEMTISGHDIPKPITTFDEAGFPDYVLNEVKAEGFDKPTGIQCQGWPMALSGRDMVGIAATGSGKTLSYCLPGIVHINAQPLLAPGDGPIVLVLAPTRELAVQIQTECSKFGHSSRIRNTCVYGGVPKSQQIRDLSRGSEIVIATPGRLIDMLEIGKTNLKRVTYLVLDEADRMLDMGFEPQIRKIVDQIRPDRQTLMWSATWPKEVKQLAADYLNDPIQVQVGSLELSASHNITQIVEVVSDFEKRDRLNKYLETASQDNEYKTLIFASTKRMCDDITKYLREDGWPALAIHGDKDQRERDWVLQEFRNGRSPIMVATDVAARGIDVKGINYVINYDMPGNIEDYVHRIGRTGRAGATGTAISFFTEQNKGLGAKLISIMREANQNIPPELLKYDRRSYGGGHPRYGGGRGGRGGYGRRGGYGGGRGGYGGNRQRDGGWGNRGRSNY

Consider AGCACCGUAAAGACGC (ssRNA) [16 nt ssRNA, 6-FAM], for which the Kd (usually the free concentration of one partner at which half of the binding sites on the other are occupied at equilibrium, for simple one-to-one binding) was 0.038 µM.
